Experiment: yeast display, Sf9 membrane polyspecificity reagent, FACS + sequencing; frameworks hold sequencing errors
Procedure, shortened: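 Polyreactivity labels are assigned by the sorting gate from which each nanobody was recovered. The gates were low and high (top ~1%), set on anti-HA fluorescence for expression and streptavidin fluorescence for reagent binding. Before sorting, galactose-induced (36–48 hours) yeast display cells were stained for 1 hour at 4 °C with 10% biotinylated, detergent-solubilized Sf9 membrane reagent.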

Row | Sequence | polyreactivity (PSR sort gate)
1 | QVQLVESGGGLVQAGGSLRLSCAASGRIFRTYAMGWYRQAPGKERELVAAINSVDRTYYADSVKGRFTISRDNAKNTVYLQMNSLKPEDTAVYYCAARGYRGHDEFGYWGQGTQVTVSS | high polyreactivity
2 | QVQLVESGGGLVQAGGRLRLSCAASGITFYRYAMGWYIQAPGKERELVASISSRGSSSYYADSVKGRFTISRDNAKNTVYLQRNSLKPEDTAVYYCAKSRGSRGFVASTYNYWGQGTQVTVSS | high polyreactivity
3 | QVQLVESGGGLVQAGGSLRLSCAASGSTFPVYAMGWYRQAPGKERELVAAITSGGSTYYADSVKGRFTISRDNAKNTVYLQMNSLKPEDTAVYYCAAEDSSPAYNHWGQGTQVTVSS | low polyreactivity
4 | QVQLVESGGGLVQAGGSLRLSCAASGRIFGGYTMGWYRQAPGKEREFVAAITSSGGSTYYADSVKGRLTISRDNAKNTVYLQMNSLKPEDTAVYYCAVADYYDDYDYWGQGTQVTVSS | low polyreactivity
5 | QVQLVESGGGLVQAGGSLRLSCAASGSIFVYYAMGWYRQAPGKERELVAAISSTGGRTYYADSVKGRFTISRDNAKNTVYLQMNSLKPEDTAVYYCNAARTGYRYYDWFYDYDYWGQGTQVTVSS | low polyreactivity
6 | QVQLVESGGGLVQAGGSLRLSCAASGRILGFYAMGWYRQAPGKERELDARINWSGTRTYYADSVKGRFTISRDNAKNTVYLQMNSLKPEDTAVYYCAAERYPYGVTYSKLDYWGQGTQVTVSS | high polyreactivity
7 | QVQLVESGGGLVQAGGSLRLSCAASGYIFPSYAMGWYRQAPGKERELVAVITTRGSTYYADSVKGRFTISRDNAKNTVYLQMNSVKAEETAVYYCAAAPYVYWFFVRPYGDDYWGLGTQVTVSS | high polyreactivity
8 | QVQLVESAGGLVQAGGSLRLSCAASGSTFYPYAIGWYRQAPGKERELVAAISSGGSTYYADSVKGRFTISRDNAKNTVYLQMNSLKPEDTAVYYCAADFYYAYYWGQGTQVTVSS | low polyreactivity
9 | QVQLVESGGGLVQAVVSLRLSCAASGGTITSYAMVSSRQAPGKERELVAAITRSGGSTYYADSVKGRFTISRDNAKNTVYLQMKSLKPEDTAVYYCAARYWHSYGYWGQGTQVTVSS | high polyreactivity
10 | QVQLQESGGGLVQAGGSLRLSCAASGNISVTGFMGWYRQAPGKERELVASIGIGGTTYYADSVKGRFSISRDNAKNTVYLQMNSLKPEDTAVYYCAARYLYYAYSYWCQGTQVTVSS | low polyreactivity
11 | QVQLVESGGGLVQAGGSLRLSCAASGSTFEDYPLGWYRQAPGKERELVAAISHIGGSTYYADSVKGRFTISRDNAKNTVYLQMNSLKPEDTAVYYCAKGGFSSKFDYWGQGTQVTVSS | low polyreactivity
12 | QVQLVESGGGLVQAGGSLRLSCAASGFTFYSYDMGWYRQAPGKERELVAAITWSGGSTYYADSVKGRFTISRDNAKNTVYLQMNSLKPEDTAVYYCAAELFPLQHFWVAYATRRYDYWGQGTQVTVSS | low polyreactivity
13 | QVQLVESGGGLVQAGGSLSLSCAASGGTFSRYGMGWYRQAPGKEREMVAAISRSGGSTYYADSVKWRFTISRDNAKNTVYLQMNSLKPEDTAVYYCAAKLPIPYTTGRYAAMDYWGQGTQVTVSS | high polyreactivity
14 | QVQLVESGGGLVQAGGSLRLSCDASGSIFRYYGMGWYRQAPGKERELVAAISARGGSTRYADSVKGRFTISRDNAKNTVYLQMNSLKPEDTAVYYCAAGYPYDYDYWGQGTQVTVSS | high polyreactivity
15 | QVQLVESGGGLVQAGGSLRLSCAASGSIFDVNAMGWYRQAPGIERDLVAAISQRGTRTYYADSVKGRFTISRDNAKNTVYLQMNSLKPEDTAVYYCAARVPSVGNQSGYDYWGQGTQVTVSS | high polyreactivity
16 | QGQLVESGGGLVQAGGSLRLSSAASGSTFARYAMGWYRQAPGKERELVAVIRSGGSTNYADSVKGRFTISRDNAKNTVYLQMNSLKPEDTAGAADLWTLHRWATYGYWGQGTQVTVSS | low polyreactivity
17 | QVQLVESWGGLVQAGGSLRLSCAASGITFTVYAMGWYRQAPGKEREFVAAISSSGSTTYAVSVKGRLTFSRDNAKNTVYLQMNSLKPEDTAVYYCAAEGYYRFSTAYFRRKYEYCGQGTQVTVSS | low polyreactivity
18 | QVQLVESGGGLVQAGGSLRLSCAASGFTFAYNAMGWYRQAPGKERELVAAISSSGGRTYYADSVKGRFTISRDNAKNTVYLQMNSLKPEDTAVYDCATRPKVAYEYDYWGQGTQVTVSS | high polyreactivity
19 | QVQLVESGGGLVQAGGSLRLSCAASGSIFYWNAMGWYRQAPGKEREFVADISQSGDSTYYADSVKGRFTISRDNAKNTVYLQMNSLKPEDTAVYYCAAQFLSYAWDYDYWGQGTQVTVSS | low polyreactivity
20 | QVQLVESGGGLVQAGGSLRLSCAASGRTFRLNAMGWYRQAPGKERELVAAITASGGRTYYADSVKGRFTISRDNAKNTVYLQMNSLKPEDTAVYYCNTLSRTDASRFDYWGQGTQVTVSS | high polyreactivity
21 | QVQLVESGGGLVQAGGSLRLSCAASGSIFFINAMGWYRQAPGKERELVADITSGGGTYYADSVKGRFTISRDNAKNTVYLQMNSLKPVDTAVYYCAKEYGFTGYGYWGQCTQVTVSS | low polyreactivity
22 | QVQLVESGGGLVQAGGSLRLSSAASGSIFRSYTMGWYRQAPGKERELVAAISGRAGSTYYADAVKGRVTISRDNAKNTVYLQMNSLKPEDTAVYYCAVKLGGRSQSYYWGQGTQVTVSS | high polyreactivity

Row | Sequence | polyreactivity (PSR sort gate)
23 | QVQLVESGGGLVQAGGSLRLICADSGLTFSCYTMGGYRQAPGKERELVADITVSGGTTYYADSVKGRFSISRDNAKNTVYLQMNSLKPEDTSVYYCNAQDTFTYYSSSPTYDYWGQGTQVTVSS | low polyreactivity
24 | QVQLVESGGGLVHAGGSLRLSCAASGSTFNYYAMGWYRQAPGKERELVAAIDWSGGSTYYADSVKGRFTISRDNAKNTVYLQMNSLKPEDTAVYYCAARTYDYSYRSYDYWGQGTQVTVSS | low polyreactivity
25 | QVQLVESGGGLFQAGGSLRLICAASGNIFKSYTMGWYRQAPGKERELVAAITSGGRTNYADSVKGRFTISRDNAKNTVYLQMNSLKPEDTAVYYCNAYKVFWVSIRYKFDYWGQGTQVTVSS | high polyreactivity
26 | QVQLVESGGGLVQAGGSLRLSCAASGFTFYSYAMGWYRQAPGKERELVATITSAGSTNYADSVKGRFTISRDNAKNTVYLQMNSLKPEDTAVYYCAAVYYYIYYWGQVTQVTVSS | high polyreactivity
27 | QVQLVESGGGLVHAGGSLRLSCAASGFTFGNAMGWYRQAPGKERELVAAITVNGGTTNYADSVKGRFTISRDNAKNTVYLQMNSLKPEDTAVYSCNVDTSYGPAGDYWGQGTQVTVSS | low polyreactivity
28 | QVQLVESGGGLVQAGGSLRLNCAASGIIFIVYRMGWYRQAPGKERELVASINYGNGSTYYADSVKGRFTISRDNAKTTVYLQMNSLKQEDTAVYYCNADYTGTRTDSVTPEYEYWGQGTQVTVSS | low polyreactivity
29 | QVQLVESGGGLVQAGGSLRLSCAASGSIIGTNVMGWYRQAPGKERELVASISYRDGTTYYADSVKGRFTISRDNAKNTVYLQMNSLKPEDTAVYYCAVANYYSYYWGQGTQVTVSS | low polyreactivity
30 | QVQLVESGGGLVHAGGSLRLSCAASGGNFGKYAMGGYRQAPGKERELVAAITWNGGRTYYADSVKGRFTLSRDNAKNTVYLQMNSLKPEDSAVNYCNARNSHRYVYWGQGTQVTVSS | high polyreactivity
31 | QVQRVESGGGLLQAGGSLSLSCAASGSIFEWYAMGWYRQEPGTERELVAAIRSGGTTNYADSVKGRFTISRDHAKNTVYLQMNSLKPEVTAVYDCAAKSVTGLFRYYYWGQGTQVTVTS | low polyreactivity
32 | QVQLVESGGGLVQAGGSLRLSCAASGSTFARYAMGWYRQAPGKERELVAGISTSGGRTYYADSVKGRFTISRDNAKNTVYLQMNSLKPEDTAVYYCAKALSQTWYDGQYGYWGQGTQVTVSS | low polyreactivity
33 | QVQLVESGGGLVQAGGSLRLSCAASGRIFYSYGMGWYRQAPGKERELVASITISGGGSTYYADSVKGRFTISRDNAKNTVYLQMNSLKPEDTAVYYCAATRTVWKYIYDYWGQGTQVTVSS | high polyreactivity
34 | QVQLVESGGALVQAGGSLRLSSAASGSIFGSNGIGSYRPAPGKERELVAAITRSGGSTRYADSVKGRFTISRDNAKNTVYLQMNSLKPEDTAVYYCAKYDTSTGYDYWGQGTQVTVSS | high polyreactivity
35 | QVQLVESGGGLVQAGGSLRLRCAASGRTLSSYAMGWYREAPGKERELVAAITRSGGSTYYADSVNGRFTISRDIAKNTVYLQMNSLKPEDTAVYYCAADGYRRYGSWGQGTQVTVSS | high polyreactivity
36 | QVQLVESGGGLVQAGGSLRLRCAASGFTFHRYAMGWYRPAPGKERELVAGITRRSGSTFYADSVKGRFTISRDNAKNTVYLQMNSLKPEDTAVYYCAATVPGLHWIYDYWGQGTQVTVSS | high polyreactivity
37 | QVQLVESGGGLGQAGGSLRLSCAASGNTFYWNAMGWYRQAPGKERELVAAISTTGVSSYYADSVKGRFTISRDNAKNSVYLQMNSLKPEDTAVYYCAGEIIGYHTIYDYWGQGTQVTVSS | low polyreactivity
38 | QVQLESGGGLVQAGGSLRISCAASGSTFVTYDMGWDRQAPGKEREIVAAIDWSGDSTYADSVKGRFTISRDNAKNTVYLQMNSLIPEDTAVYSCAADYDNYGDVYPYYTAGYGYWGQGTQVTVSS | low polyreactivity
39 | QVQLVESGGGLVQAGGSLRLSCAASGSIFYLYAMGWYRQEPGKERELVAAITSGDSTTYADSVKGRFTISRDNAKNTVYLQMNSLIPEDTAVYYCAADWPGLVGYHNSAENDYWGQGTQVTVSS | low polyreactivity
40 | QVQLVESGGGLVQAGGSLRLSCAASGNTFRNYAMGWYRQAPGKERELVAAISWTGARTYYADSVKGRFTISRDNAKNTVYLQMNSLKPEDTAVYYCARPLQWWSPSGTVDYGYWGQGTQVTVSS | high polyreactivity
41 | QVQLVESGGGLVQAGGSLRLSCAASGGIFSVYAMGLYRQAPGKERELVASITVSGGSTSYADSVKGRFTISRDNAKNTVYLQMNSLKPEDTAVYYCNTDFGQAHTLSWYEDMDYWGQGTQVTVSS | low polyreactivity
42 | QVQLVESGGGLVQAGGSLRLSCAASGRTFYRNAMGWYRQAPGKERELVAAISRGDSTYYADSVKGRFTNSRDNAKNTVYLQMNILIPEDTAVYYCAKRARRIGDVNMGSWGQGTQVTVSS | low polyreactivity
43 | QVQLVESGGGLVQAGGRLRLSCAASGSTFSWYVMGWYRQAPGKERELVAAITRGGGSTYYADSVKGRFTISRDNAKNTVYLQMNSLKPEDTAVYYCNADSNIPDYDYWGQGTQVTVSS | low polyreactivity
